Results reported in patent US20140113322A1, “SUPRAMOLECULAR NANOBEACON IMAGING AGENTS AS PROTEASE SENSORS” (priority 2012, published 2014).

Tested on: MCF-7 cells

With `COc1cc(N=Nc2ccc(C)cc2[N+](=O)[O-])c(C)cc1N=Nc1ccc(N(C)CCCC(=O)NCCCC[C@H](NC(=O)CNC(=O)[C@H](CC(C)C)NC(=O)[C@H](Cc2ccccc2)NC(=O)CNC(=O)c2ccc3c(c2)C(=O)OC32c3ccc(O)cc3Oc3cc(O)ccc32)C(=O)NCC(=O)N[C@@H](CCCNC(=N)N)C(=O)N[C@@H](CCCCN)C(=O)N[C@@H](CCCCN)C(=O)N[C@@H](CCCNC(=N)N)C(=O)N[C@@H](CCCNC(=N)N)C(=O)N[C@@H](CCC(N)=O)C(=O)N[C@@H](CCCNC(=N)N)C(=O)N[C@@H](CCCNC(=N)N)C(=O)N[C@@H](CCCNC(=N)N)C(=O)N2CCC[C@H]2C(=O)N2CCC[C@H]2C(=O)N[C@@H](CCC(N)=O)C(N)=O)cc1` [TFB] the “toxicity to MCF-7 cells (cell viability)” value was “little toxicity”.
